B2: H-NS (histone-like or heat-stable nucleoid structuring protein), wild type (natural protein, uropathogenic E. coli)
chain: MSEALKILNNIRTLRAQARECTLETLEEMLEKLEVVVNERREEESAAAAEVEERTRKLQQYREMLIADGIDPNELLNSLAAVKSGTKAKRAQRPAKYSYVDENGETKTWTGQGRTPAVIKKAMDEQGKSLDDFLIKQ
notes: H-NS from uropathogenic E. coli, 137 residues as printed; Polydisperse in solution: monomers, dimers, tetramers and octamers; Expressed as H-NS:intein:CBD fusion; also called H-NS WT; wild-type H-NS; source: E. coli BL21(DE3), pTXB1 vector, purified (chitin column, intein cleavage, Superdex 200 SEC)

Key:
[1] = target: the molecule itself; experiment: AUC + other: differential scanning calorimetry; parameters of the thermodynamic model that best capture the AUC and DSC observations; defined at the reference temperature TD 333 K; 150 mM ionic strength, pH 7; dimer to monomers
[2] = target: the molecule itself; experiment: AUC + other: differential scanning calorimetry; parameters of the thermodynamic model that best capture the AUC and DSC observations; defined at the reference temperature TD 333 K; 300 mM ionic strength, pH 7; dimer to monomers
[3] = target: the molecule itself; experiment: AUC + other: differential scanning calorimetry; thermodynamic model set semi-quantitatively to match AUC populations (20 °C) and DSC thermograms; constant predicted by the model for 13 °C; 300 mM ionic strength, pH 7; dimer to monomers
[4] = target: the molecule itself; experiment: AUC + other: differential scanning calorimetry; thermodynamic model set semi-quantitatively to match AUC populations (20 °C) and DSC thermograms; constant predicted by the model for 25 °C; 300 mM ionic strength, pH 7; dimer to monomers
[5] = target: the molecule itself; experiment: AUC + other: differential scanning calorimetry; thermodynamic model set semi-quantitatively to match AUC populations (20 °C) and DSC thermograms; constant predicted by the model for 37 °C; 300 mM ionic strength, pH 7; dimer to monomers
[6] = target: the molecule itself; experiment: AUC + other: differential scanning calorimetry; parameters of the thermodynamic model that best capture the AUC and DSC observations; defined at the reference temperature TO 333 K; 150 mM ionic strength, pH 7; tetramer to dimers and octamer to tetramers (one constant KO for both steps)
[7] = target: the molecule itself; experiment: AUC + other: differential scanning calorimetry; parameters of the thermodynamic model that best capture the AUC and DSC observations; defined at the reference temperature TO 333 K; 300 mM ionic strength, pH 7; tetramer to dimers and octamer to tetramers (one constant KO for both steps)
[8] = target: the molecule itself; experiment: AUC + other: differential scanning calorimetry; thermodynamic model set semi-quantitatively to match AUC populations (20 °C) and DSC thermograms; constant predicted by the model for 13 °C; 150 mM ionic strength, pH 7; tetramer to dimers and octamer to tetramers (one constant KO for both steps)
[9] = target: the molecule itself; experiment: AUC + other: differential scanning calorimetry; thermodynamic model set semi-quantitatively to match AUC populations (20 °C) and DSC thermograms; constant predicted by the model for 13 °C; 300 mM ionic strength, pH 7; tetramer to dimers and octamer to tetramers (one constant KO for both steps)
[10] = target: the molecule itself; experiment: AUC + other: differential scanning calorimetry; thermodynamic model set semi-quantitatively to match AUC populations (20 °C) and DSC thermograms; constant predicted by the model for 25 °C; 300 mM ionic strength, pH 7; tetramer to dimers and octamer to tetramers (one constant KO for both steps)
[11] = target: the molecule itself; experiment: AUC + other: differential scanning calorimetry; thermodynamic model set semi-quantitatively to match AUC populations (20 °C) and DSC thermograms; constant predicted by the model for 37 °C; 300 mM ionic strength, pH 7; tetramer to dimers and octamer to tetramers (one constant KO for both steps)
[12] = target: the molecule itself; experiment: AUC + other: differential scanning calorimetry; thermodynamic model (octamer, tetramer, dimer, folded and unfolded monomer) whose parameters were set semi-quantitatively to match AUC populations (20 °C) and DSC thermograms; constant predicted by the model for 13 °C; 150 mM ionic strength, pH 7; dimer to monomers
[13] = target: the molecule itself; experiment: AUC + other: differential scanning calorimetry; thermodynamic model brought into semi-quantitative agreement with AUC populations and DSC curves; 150 mM ionic strength, pH 7; constant at 25°C; dimer to monomers
[14] = target: the molecule itself; experiment: AUC + other: differential scanning calorimetry; thermodynamic model brought into semi-quantitative agreement with AUC populations and DSC curves; 150 mM ionic strength, pH 7; constant at 37°C; dimer to monomers
[15] = target: the molecule itself; experiment: AUC + other: differential scanning calorimetry; thermodynamic model brought into semi-quantitative agreement with AUC populations and DSC curves; 150 mM ionic strength, pH 7; constant at 25°C; tetramer to dimers and octamer to tetramers (one constant KO for both)
[16] = target: the molecule itself; experiment: AUC + other: differential scanning calorimetry; thermodynamic model brought into semi-quantitative agreement with AUC populations and DSC curves; 150 mM ionic strength, pH 7; constant at 37°C; tetramer to dimers and octamer to tetramers (one constant KO for both)
[17] = target: the molecule itself; experiment: AUC; sedimentation velocity, 20°C, 150 mM ionic strength, pH 7, 15-200 μM protein, c(s) analysis with SEDFIT
[18] = target: T1, Cnu, co-repressor of the Hha family (E. coli, UniProt P64467 1-71); experiment: other fluorescence titration; tryptophan (W67) emission of 2 μM Cnu, excitation 295 nm, with 30 nM to 50 μM tryptophan-free H-NS variant; intensity-averaged wavenumber; Hill equation, apparent (K1/2); 150 mM ionic strength, pH 7, 25°C; conditions: both partners purified
T1 construct: Cnu, a member of the Hha family in E. coli; harbors a sole tryptophan (W67)
T1 sequence (looked up): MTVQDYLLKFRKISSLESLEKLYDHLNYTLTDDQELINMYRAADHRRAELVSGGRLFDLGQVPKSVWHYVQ

[19] = target: B2; experiment: fluorescence polarisation; steady-state tryptophan (W109) anisotropy of 2 μM wild-type H-NS with 30 nM to 50 μM H-NSm, 150 mM ionic strength, pH 7, 13, 25 and 37°C; conditions: both partners purified
[20] = target: T1, Cnu, co-repressor of the Hha family; experiment: other fluorescence titration; tryptophan (W67) emission of 2 μM Cnu, excitation 295 nm, with 30 nM to 50 μM tryptophan-free H-NS variant; intensity-averaged wavenumber; Hill equation, apparent (K1/2); 300 mM ionic strength, pH 7, 25°C; conditions: both partners purified

B1: H-NS (histone-like or heat-stable nucleoid structuring protein) (natural protein, E. coli (uropathogenic))
chain: MSEALKILNNIRTLRAQARECTLETLEEMLEKLEVVVNERREEESAAAAEVEERTRKLQQYREMLIADGIDPNELLNSLAAVKSGTKAKRAQRPAKYSYVDENGETKTWTGQGRTPAVIKKAMDEQGKSLDDFLIKQ
notes: H-NS from uropathogenic E. coli, whole protein as printed in the methods; Expressed as the fusion H-NS:intein:CBD and released by cleavage with beta-mercaptoethanol; also called WT H-NS; wild-type H-NS; source: E. coli BL21(DE3), pTXB1 vector, purified (chitin column, intein-mediated cleavage, Superdex 200 SEC)
- Kd [1]: 1000 µM
- Kd [2]: 100 µM
- Kd [3]: 1.19 µM
- Kd [4]: 4.22 µM
- Kd [5]: 13.6 µM
- Kd [6]: 100 µM
- Kd [7]: 100 µM
- Kd [8]: 17 µM
- Kd [9]: 9.39 µM
- Kd [10]: 18.5 µM
- Kd [11]: 34.5 µM
- Kd [12]: 0.0238 µM

Binder: B2
- Kd [13]: ~0.5 µM
- Kd [14]: ~8 µM
- Kd [15]: ~30 µM
- Kd [16]: ~45 µM

B3: H-NS Y61E, phosphomimetic mutant (natural protein)
chain: MSEALKILNNIRTLRAQARECTLETLEEMLEKLEVVVNERREEESAAAAEVEERTRKLQQEREMLIADGIDPNELLNSLAAVKSGTKAKRAQRPAKYSYVDENGETKTWTGQGRTPAVIKKAMDEQGKSLDDFLIKQ
notes: H-NS from uropathogenic E. coli; also called Y61E mutant; source: E. coli BL21(DE3), pTXB1 vector, purified following identical protocols as H-NS
- stoichiometry N [17]: 2

B4: Y61Em (Y61E/W109F H-NS) (natural protein)
chain: MSEALKILNNIRTLRAQARECTLETLEEMLEKLEVVVNERREEESAAAAEVEERTRKLQQEREMLIADGIDPNELLNSLAAVKSGTKAKRAQRPAKYSYVDENGETKTFTGQGRTPAVIKKAMDEQGKSLDDFLIKQ
notes: H-NS from uropathogenic E. coli; source: E. coli BL21(DE3), pTXB1 vector, purified following identical protocols as H-NS
- Kd [18]: 1.6 µM

B5: H-NSm (W109F H-NS), tryptophan null variant of H-NS (natural protein)
chain: MSEALKILNNIRTLRAQARECTLETLEEMLEKLEVVVNERREEESAAAAEVEERTRKLQQYREMLIADGIDPNELLNSLAAVKSGTKAKRAQRPAKYSYVDENGETKTFTGQGRTPAVIKKAMDEQGKSLDDFLIKQ
notes: H-NS from uropathogenic E. coli; also called H-NS tryptophan variant; source: E. coli BL21(DE3), pTXB1 vector, purified following identical protocols as H-NS
- binding result [19]: binds
- Kd [18]: 4 µM
- Kd [20]: 12 µM
